From PMC11251181, “Crystal structure of MAGEA4 MHD-RAD18 R6BD reveals a flipped binding mode compared to AlphaFold2 prediction” (The EMBO Journal, 2024)
No end group written: not given here.

Molecular target: T1, MAGEA4 MAGE homology domain (MHD), residues D101-V317 (human, UniProt P43358 101-317)
T1 construct: MAGEA4, human, MAGE homology domain, residues D101-V317; His6 tag removed with TEV protease; also called MAGEA4 MHD; MAGEA4-MHD; source: E. coli BL21 (DE3), purified (Ni-NTA, TEV cleavage, Superdex-75 SEC); not shown: His6, N-terminal, cleaved
T1 sequence (looked up): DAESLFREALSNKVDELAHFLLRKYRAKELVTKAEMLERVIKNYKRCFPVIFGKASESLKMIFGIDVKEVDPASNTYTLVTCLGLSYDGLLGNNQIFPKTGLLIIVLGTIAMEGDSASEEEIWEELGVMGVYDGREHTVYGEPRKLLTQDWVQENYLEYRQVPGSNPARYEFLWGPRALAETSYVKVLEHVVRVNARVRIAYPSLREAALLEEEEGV
Experiment: crystal structure; MAGEA4 MHD (10.3 mg/mL) incubated on ice with a 1:2 molar ratio of RAD18 R6BD in 20 mM Tris HCl pH 7.5, 200 mM NaCl, 1 mM TCEP; sitting drop vapor diffusion; 2.58 Å
Conditions: both partners purified

B1: RAD18 RAD6-binding domain (R6BD) peptide, residues H339-G366 (peptide, UniProt Q9NS91 339-366, looked up)
peptide: HSKYRKKHKSEFQLLVDQARKGYKKIAG-NH2
notes: also called RAD18 R6BD; source: synthetic peptide (UNC Chapel Hill High-Throughput Peptide Synthesis and Array Facility)
Does B1 bind?
Result: binds
